± gives the uncertainty stated by the source.

B1: Membrane-associated guanylate kinase, WW and PDZ domain-containing protein 2, residues 601 to 682; numbered along this chain, Q86UL8 (parent)
chain: AELMTLTIVKGAQGFGFTIADSPTGQRVKQILDIQGCPGLCEGDLIVEINQQNVQNLSHTEVVDILKDCPIGSETSLIIHRG

The data set covers variants of B1. The experiment in a line: abundance fitness (aPCA) (normalised: wild type 0, dead -1); higher = more abundant; growth selection in yeast, the domain comes from the species named. The conditions noted are these: Homo sapiens.
Take I46L: the abundance fitness amounted to 0.236 ± 0.32.

Turning to I46V, the abundance fitness is -0.079 ± 0.18.

For the variant I46M, the abundance fitness was 0.164 ± 0.14.

Turning to I46T, the abundance fitness was -0.587 ± 0.27.

For the variant V28L, the abundance fitness was -0.215 ± 0.095.

For the variant V28S, the abundance fitness is -0.849 ± 0.2.

For the variant V28E, the abundance fitness is -1.03 ± 0.27.

V28P: the abundance fitness was -1.09 ± 0.37.

Regarding V28I, the abundance fitness is 0.144 ± 0.23.

As to V28C, the abundance fitness is -0.077 ± 0.14.

As for V28N, the abundance fitness is -0.564 ± 0.29.

As to V28A, the abundance fitness is -0.305 ± 0.22.

As to V28Q, the abundance fitness is -0.718 ± 0.38.

V28T: the abundance fitness was -0.538 ± 0.34.

Regarding V28G, the abundance fitness is -0.655 ± 0.1.

On to I49H, for which the abundance fitness is -0.964 ± 0.23.

On to I49A, for which the abundance fitness was -0.173 ± 0.078.

For the variant I49P, the abundance fitness is -1.01 ± 0.36.

In the case of I49T, the abundance fitness is -0.371 ± 0.34.

I49L: the abundance fitness stood at 0.011 ± 0.087.

For the variant I49Y, the abundance fitness was -0.14 ± 0.28.

In the case of I49F, the abundance fitness was -0.065 ± 0.24.

With I49R, the abundance fitness is -0.875 ± 0.17.

Regarding I49C, the abundance fitness was -0.094 ± 0.11.

As to I49W, the abundance fitness is -0.241 ± 0.093.

Turning to I49G, the abundance fitness was -1.08 ± 0.31.

As for I49S, the abundance fitness was -0.97 ± 0.49.

With I49V, the abundance fitness was determined as 0.072 ± 0.082.

With I49M, the abundance fitness is -0.195 ± 0.13.

Consider Q30S, for which the abundance fitness was -0.076 ± 0.098.

For Q30V, the abundance fitness is -0.102 ± 0.07.

For Q30A, the abundance fitness was -0.052 ± 0.17.

With Q30C, the abundance fitness is -0.205 ± 0.16.

Consider Q30L, for which the abundance fitness stood at 0.066 ± 0.1.

For Q30R, the abundance fitness is -0.111 ± 0.094.

Q30Y: the abundance fitness was -0.064 ± 0.15.

With Q30D, the abundance fitness is -0.022 ± 0.2.

As to Q30T, the abundance fitness is -0.117 ± 0.19.

Consider Q30N, for which the abundance fitness is -0.302 ± 0.48.

As for Q30K, the abundance fitness is 0.363 ± 0.34.

Turning to Q30F, the abundance fitness is 0.234 ± 0.24.

As to Q30E, the abundance fitness is -0.188 ± 0.14.

Take Q30P: the abundance fitness is -0.103 ± 0.11.

Q30H: the abundance fitness was -0.062 ± 0.15.

For Q30W, the abundance fitness is 0.04 ± 0.27.

Regarding Q30M, the abundance fitness worked out at 0.098 ± 0.12.

Turning to D33Y, the abundance fitness is 0.049 ± 0.1.

Turning to D33C, the abundance fitness was -0.092 ± 0.08.

As for D33Q, the abundance fitness was 0.024 ± 0.076.

Regarding D33E, the abundance fitness is -0.089 ± 0.054.

Turning to D33G, the abundance fitness was -0.11 ± 0.04.

Consider D33P, for which the abundance fitness was -0.147 ± 0.051.

On to D33V, for which the abundance fitness is -0.152 ± 0.052.

Regarding D33N, the abundance fitness is -0.043 ± 0.082.

On to D33K, for which the abundance fitness is -0.192 ± 0.084.

D33T: the abundance fitness was -0.02 ± 0.059.

For D33W, the abundance fitness is -0.117 ± 0.066.

As to D33H, the abundance fitness was -0.088 ± 0.071.

In the case of D33M, the abundance fitness was -0.124 ± 0.06.

D33R: the abundance fitness was -0.061 ± 0.041.

D33I: the abundance fitness was -0.243 ± 0.11.

In the case of G36F, the abundance fitness was -0.245 ± 0.22.

Consider G36L, for which the abundance fitness was -0.261 ± 0.22.

With G36S, the abundance fitness was -0.158 ± 0.081.

Turning to G36C, the abundance fitness is -0.044 ± 0.09.

For the variant G36Q, the abundance fitness is -0.054 ± 0.2.

For G36E, the abundance fitness is 0.037 ± 0.17.

For the variant G36H, the abundance fitness is -0.126 ± 0.32.

Take G36P: the abundance fitness was -0.057 ± 0.15.

In the case of G36T, the abundance fitness turned out to be 0.064 ± 0.21.

On to G36A, for which the abundance fitness is -0.241 ± 0.24.

G36N: the abundance fitness worked out at 0.055 ± 0.21.

G36M: the abundance fitness was 0.04 ± 0.13.

For G36R, the abundance fitness is -0.069 ± 0.08.

With G36V, the abundance fitness is -0.009 ± 0.1.

For E48W, the abundance fitness is -0.158 ± 0.12.

In the case of E48M, the abundance fitness is -0.144 ± 0.2.

On to E48V, for which the abundance fitness was -0.086 ± 0.087.

Turning to E48A, the abundance fitness is -0.193 ± 0.094.

Regarding E48K, the abundance fitness is -0.117 ± 0.11.

For the variant E48H, the abundance fitness was 0.091 ± 0.43.

E48C: the abundance fitness is -0.145 ± 0.1.

Consider E48Y, for which the abundance fitness is 0.006 ± 0.26.

In the case of E48R, the abundance fitness was -0.103 ± 0.056.

Take E48D: the abundance fitness is -0.444 ± 0.23.

As for E48L, the abundance fitness was -0.114 ± 0.079.

As for E48I, the abundance fitness is -0.871 ± 0.47.

Regarding E48Q, the abundance fitness was -0.098 ± 0.17.

In the case of E48S, the abundance fitness was -0.004 ± 0.089.

Turning to E48T, the abundance fitness was -0.226 ± 0.18.

On to C37S, for which the abundance fitness turned out to be 0.012 ± 0.18.

As to C37Q, the abundance fitness is -0.113 ± 0.16.

On to C37Y, for which the abundance fitness is -0.036 ± 0.21.

With C37T, the abundance fitness was -0.05 ± 0.15.

As to C37K, the abundance fitness is -0.208 ± 0.11.

Turning to C37F, the abundance fitness came out at 0.204 ± 0.49.

On to C37M, for which the abundance fitness is -0.16 ± 0.15.

For the variant C37A, the abundance fitness was -0.195 ± 0.11.

As to C37R, the abundance fitness was -0.163 ± 0.08.

Regarding C37E, the abundance fitness was determined as 0.005 ± 0.12.

In the case of C37P, the abundance fitness was -0.384 ± 0.18.

Regarding C37V, the abundance fitness was -0.119 ± 0.099.

Take C37D: the abundance fitness was -0.052 ± 0.1.

In the case of C37G, the abundance fitness was -0.28 ± 0.097.

Take C37I: the abundance fitness is -0.173 ± 0.27.

Consider C37W, for which the abundance fitness was -0.287 ± 0.18.

As to Q51N, the abundance fitness stood at 0.045 ± 0.044.

As to Q51S, the abundance fitness is -0.018 ± 0.038.

As for Q51W, the abundance fitness was -0.09 ± 0.055.

In the case of Q51F, the abundance fitness was -0.063 ± 0.041.

As to Q51T, the abundance fitness was 0.005 ± 0.039.

Take Q51E: the abundance fitness was -0.013 ± 0.063.

Regarding Q51A, the abundance fitness is -0.012 ± 0.043.

For Q51D, the abundance fitness is -0.024 ± 0.05.

For Q51L, the abundance fitness was -0.064 ± 0.029.

Q51K: the abundance fitness was -0.024 ± 0.042.

Q51I: the abundance fitness was -0.269 ± 0.048.

As for Q51M, the abundance fitness was -0.042 ± 0.047.

For the variant Q51C, the abundance fitness was -0.067 ± 0.059.

In the case of Q51P, the abundance fitness was -0.749 ± 0.07.

Consider Q51V, for which the abundance fitness is -0.088 ± 0.042.

For the variant Q51H, the abundance fitness is -0.016 ± 0.041.

In the case of Q52A, the abundance fitness is -0.037 ± 0.044.

Q52E: the abundance fitness was -0.016 ± 0.069.

In the case of Q52I, the abundance fitness stood at 0.038 ± 0.051.

Consider Q52D, for which the abundance fitness is 0.027 ± 0.061.

Turning to Q52C, the abundance fitness is -0.052 ± 0.066.

For Q52H, the abundance fitness is -0.029 ± 0.043.

Q52F: the abundance fitness is -0.054 ± 0.045.

On to P38H, for which the abundance fitness was -0.363 ± 0.36.

For the variant P38Q, the abundance fitness is -0.121 ± 0.14.

In the case of P38C, the abundance fitness is -0.158 ± 0.11.

Take P38E: the abundance fitness is -0.11 ± 0.09.

On to P38T, for which the abundance fitness is -0.038 ± 0.096.

As for P38L, the abundance fitness was determined as 0.037 ± 0.098.

On to P38V, for which the abundance fitness was -0.097 ± 0.088.

On to P38S, for which the abundance fitness was -0.056 ± 0.094.

As for P38R, the abundance fitness is -0.13 ± 0.098.

In the case of P38K, the abundance fitness was -0.001 ± 0.17.

In the case of P38W, the abundance fitness is -0.09 ± 0.15.

With P38A, the abundance fitness is -0.096 ± 0.12.

For P38G, the abundance fitness is -0.067 ± 0.077.

As for G43C, the abundance fitness was -0.187 ± 0.2.

As to G43V, the abundance fitness is -0.761 ± 0.24.

As to G43A, the abundance fitness was -0.086 ± 0.097.

On to G43W, for which the abundance fitness was -0.206 ± 0.099.

On to G43S, for which the abundance fitness was -0.104 ± 0.087.

For the variant G43E, the abundance fitness was 0.059 ± 0.2.

G43F: the abundance fitness is -0.275 ± 0.17.

Turning to G43L, the abundance fitness was 0 ± 0.11.

As for G43T, the abundance fitness was -0.121 ± 0.12.

Turning to G43H, the abundance fitness was determined as 0.004 ± 0.39.

On to G43K, for which the abundance fitness was found to be 0.199 ± 0.36.

With G43M, the abundance fitness is -0.261 ± 0.17.

In the case of G43R, the abundance fitness was -0.182 ± 0.079.

For the variant G43Q, the abundance fitness amounted to 0.068 ± 0.14.

Take G43D: the abundance fitness came to 0.023 ± 0.21.

As for G39M, the abundance fitness is -0.192 ± 0.16.

As to G39V, the abundance fitness was -0.392 ± 0.11.

Consider G39P, for which the abundance fitness was -0.083 ± 0.13.

G39K: the abundance fitness is -0.192 ± 0.2.

Take G39T: the abundance fitness is -0.017 ± 0.2.

As to G39H, the abundance fitness came out at 0.069 ± 0.25.

Take G39D: the abundance fitness was -0.197 ± 0.17.

In the case of G39W, the abundance fitness is -0.211 ± 0.25.

As for G39A, the abundance fitness was -0.052 ± 0.1.

For G39S, the abundance fitness was -0.035 ± 0.084.

Values taken from the Human Domainome abundance scans (Beltran et al. 2025).
